The source of these data is patent US20220017622A1 (Pfizer, published 2022).

The target in test [1] is T1, human B7-H4 extracellular domain (human, UniProt Q7Z7D3 29-258).
T1 construct: For SPR it says only human B7-H4 ECD; also called Hu B7-H4 ECD; huB7-H4 ECD
T1 sequence: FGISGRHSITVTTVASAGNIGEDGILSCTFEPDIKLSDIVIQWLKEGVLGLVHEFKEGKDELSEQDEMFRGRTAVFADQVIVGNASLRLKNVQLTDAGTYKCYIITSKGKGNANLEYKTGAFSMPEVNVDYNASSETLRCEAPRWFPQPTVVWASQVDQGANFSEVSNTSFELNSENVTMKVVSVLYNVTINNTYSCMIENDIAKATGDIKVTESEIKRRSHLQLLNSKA
In words: competition ELISA on coated huB7-H4 ECD; competitor biotinylated 0058 (by series, not given).

Test [2] addresses T2, human B7-H4 extracellular domain (human, UniProt Q7Z7D3 29-258).
T2 construct: Soluble ECD used as SPR analyte; also called huB7-H4 ECD; huB7-H4
T2 sequence: T1 sequence
The test can be described thus: SPR 37 C; IgG1 on anti-hFc chip, ECD analyte.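 Further: antibodies captured, then B7-H4 ECD injected at five 3-fold dilutions from 300 nM, 65 s association and 600 s dissociation, fitted to a 1:1 Langmuir model.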

Where a chain is given by its changes, count along the chain named. “And” between values parts separate entries of the source, which are not always exact repeats. Equal values may be shown once.

B1: B7-H4 antibody 0119 (antibody, human IgG1, kappa, V domains shown)
VH: EVQLLESGGGLVQPGGSLRLSCAASGFTFSSYAMSWVRQAPGKGLEWVSAISGGGGSTYYADSVKGRFTISRDNSKNTLYLQMNSLRAEDTAVYYCARDIQWFGESTLFDYWGQGTLVTVSS
VL: DIQMTQSPSSLSASVGDRVTITCRASQSIRSWLAWYQQKPGKAPKLLIYKASSLEGGVPSRFSGSGSGTDFTLTISSLQPEDFATYYCQQYNSYSRTFGQGTKVEIKR
In the case of B1, the IC50 in test [1] was 7.52 nM and 13.7 nM.

B2: B7-H4 antibody 0274 (antibody, human IgG1, kappa, V domains shown)
VH: B1 VH
VL: B1 VL with Y36F
As to B2, in test [1], the half-maximal inhibitory concentration (IC50) came out at 4.2 nM.

B3: B7-H4 antibody 0564 (antibody, human IgG1, kappa, V domains shown)
VH: B1 VH with F103H
VL: B1 VL with M4L, S10T, Y36F, D70E, E81D
In test [1], B3 displayed an IC50 of 35.2 nM.

B4: B7-H4 antibody 0567 (antibody, human IgG1, kappa, V domains shown)
VH: B1 VH
VL: B1 VL with I29T, W32H, N92G
As to B4, the IC50 in test [1] came out at 5.4 nM.

B5: B7-H4 antibody 0570 (antibody, human IgG1, kappa, V domains shown)
VH: B1 VH
VL: B1 VL with I29T, G56S, N92G
In turn, B5 showed an IC50 in test [1] of 3.1 nM.

B6: B7-H4 antibody 0565 (antibody, human IgG1, kappa, V domains shown)
VH: B1 VH with E105R
VL: B1 VL with M4L, S10T, Y36F, D70E, E81D
Molecule B6 registered a concentration for half-maximal inhibition (IC50) in test [1] of 22.7 nM.

B7: B7-H4 antibody 0562 (antibody, human IgG1, kappa, V domains shown)
VH: B1 VH with Y59Q
VL: B1 VL with M4L, S10T, Y36F, D70E, E81D
Molecule B7 showed an IC50 in test [1] of 2.4 nM.

B8: B7-H4 antibody 0571 (antibody, human IgG1, kappa, V domains shown)
VH: B1 VH
VL: B1 VL with I29T, Y36H, G56S, N92G
Regarding B8, the IC50 in test [1] is 2.1 nM.

B9: B7-H4 antibody 1117 (antibody, human IgG1, kappa, V domains shown)
VH: B1 VH with F103Y
VL: B1 VL with I29T, Y36L, G56S, N92G
As for B9, the IC50 in test [1] came out at 0.15 nM.

B10: B7-H4 antibody 1115 (antibody, human IgG1, kappa, V domains shown)
VH: B1 VH with F103Y
VL: B1 VL with I29T, G56S, N92G
In test [1], B10 registered a concentration for half-maximal inhibition (IC50) of 0.42 nM.

B11: B7-H4 antibody 1117 (antibody, human IgG1, kappa, V domains shown)
VH: B1 VH with F103Y
VL: B1 VL with I29T, Y36L, G56S, N92G
notes: IgG1 mAb format
In test [2], B11 registered a Kd of 1.54 nM, a koff of 0.000949 s⁻¹ and a kon of 620000 M⁻¹ s⁻¹.

B12: B7-H4 antibody 0572 (antibody, human IgG1, kappa, V domains shown)
VH: B1 VH
VL: B1 VL with I29T, Y36L, G56S, N92G
For B12, in test [1], the IC50 was found to be 1.7 nM.

B13: B7-H4 antibody 1113 (antibody, human IgG1, kappa, V domains shown)
VH: B1 VH with F103Y
VL: B1 VL with I29T, N92G
notes: IgG1 mAb format
In test [2], B13 showed a Kd of 4.31 nM, an off-rate (koff) of 0.00108 s⁻¹ and a kon of 251000 M⁻¹ s⁻¹.

B14: B7-H4 antibody 0563 (antibody, human IgG1, kappa, V domains shown)
VH: B1 VH with F103Y
VL: B1 VL with M4L, S10T, Y36F, D70E, E81D
As for B14, the IC50 in test [1] came to 2 nM.

B15: B7-H4 antibody 1115 (antibody, human IgG1, kappa, V domains shown)
VH: B1 VH with F103Y
VL: B1 VL with I29T, G56S, N92G
notes: IgG1 mAb format
Take B15: in test [2], the equilibrium dissociation constant (Kd) was determined as 2.62 nM, the koff was 0.00116 s⁻¹ and the kon was 443000 M⁻¹ s⁻¹.

B16: B7-H4 antibody 1113 (antibody, human IgG1, kappa, V domains shown)
VH: B1 VH with F103Y
VL: B1 VL with I29T, N92G
B16: the IC50 in test [1] amounted to 1 nM.

B17: B7-H4 antibody 1116 (antibody, human IgG1, kappa, V domains shown)
VH: B1 VH with F103Y
VL: B1 VL with I29T, Y36H, G56S, N92G
In turn, B17 displayed an IC50 in test [1] of 0.16 nM.

B18: B7-H4 antibody 0414 (antibody, human IgG1, kappa, V domains shown)
VH: B1 VH
VL: B1 VL with I29T, N92G
Regarding B18, in test [1], the IC50 is 6.57 nM and 8 nM.

B19: B7-H4 antibody 1116 (antibody, human IgG1, kappa, V domains shown)
VH: B1 VH with F103Y
VL: B1 VL with I29T, Y36H, G56S, N92G
notes: IgG1 mAb format
In test [2], B19 displayed an equilibrium dissociation constant (Kd) of 2.05 nM, a koff of 0.00126 s⁻¹ and a kon of 612000 M⁻¹ s⁻¹.
